Measured values taken from patent US20150005474A1 (GLYCOTOPE, published 2015).

Biological target: MUC1 (polymorphic epithelial mucin) on human tumor cells (human, UniProt P15941 24-1255)
Test: cell binding test with radiolabelled antibody on K562 cells, Scatchard analysis

Chain of MUC1 (polymorphic epithelial mucin) on human tumor cells (P15941 24-1097, chain 1 of 2): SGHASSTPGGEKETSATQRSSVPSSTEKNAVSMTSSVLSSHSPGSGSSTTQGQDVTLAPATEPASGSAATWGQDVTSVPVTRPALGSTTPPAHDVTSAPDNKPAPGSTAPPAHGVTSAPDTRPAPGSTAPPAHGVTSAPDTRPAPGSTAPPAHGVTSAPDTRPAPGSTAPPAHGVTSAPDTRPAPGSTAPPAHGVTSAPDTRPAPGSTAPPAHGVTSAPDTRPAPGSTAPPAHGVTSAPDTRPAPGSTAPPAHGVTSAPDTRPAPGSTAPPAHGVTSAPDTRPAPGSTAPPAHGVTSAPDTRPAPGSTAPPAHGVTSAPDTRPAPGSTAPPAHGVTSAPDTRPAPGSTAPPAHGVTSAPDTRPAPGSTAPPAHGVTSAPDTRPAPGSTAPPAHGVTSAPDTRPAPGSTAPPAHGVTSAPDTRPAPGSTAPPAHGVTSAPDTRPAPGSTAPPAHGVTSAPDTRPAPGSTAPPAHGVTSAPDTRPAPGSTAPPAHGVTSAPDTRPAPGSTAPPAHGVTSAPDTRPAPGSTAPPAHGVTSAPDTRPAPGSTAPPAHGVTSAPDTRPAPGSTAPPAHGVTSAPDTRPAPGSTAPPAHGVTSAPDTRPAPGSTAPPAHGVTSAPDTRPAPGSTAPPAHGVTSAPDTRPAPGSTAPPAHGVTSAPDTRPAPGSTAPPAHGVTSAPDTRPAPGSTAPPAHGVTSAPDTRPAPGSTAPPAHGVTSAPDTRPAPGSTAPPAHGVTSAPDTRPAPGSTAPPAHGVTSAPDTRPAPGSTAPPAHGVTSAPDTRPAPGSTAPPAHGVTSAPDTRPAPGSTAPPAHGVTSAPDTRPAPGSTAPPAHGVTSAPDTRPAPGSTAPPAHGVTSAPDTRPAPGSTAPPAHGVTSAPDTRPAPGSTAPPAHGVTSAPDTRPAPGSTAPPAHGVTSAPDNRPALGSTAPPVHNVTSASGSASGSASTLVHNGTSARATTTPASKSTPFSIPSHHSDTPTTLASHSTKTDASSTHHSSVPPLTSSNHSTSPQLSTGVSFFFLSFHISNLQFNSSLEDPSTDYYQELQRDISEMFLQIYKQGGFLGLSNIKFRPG
Chain of MUC1 (polymorphic epithelial mucin) on human tumor cells (P15941 1098-1255, chain 2 of 2): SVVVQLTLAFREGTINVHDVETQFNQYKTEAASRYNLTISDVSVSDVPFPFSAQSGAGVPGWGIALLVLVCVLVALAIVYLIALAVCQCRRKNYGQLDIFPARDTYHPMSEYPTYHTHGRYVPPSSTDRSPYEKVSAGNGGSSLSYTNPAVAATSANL

B1: HMFG-1 (antibody, V domains shown)
VH: QVQLVQSGAEVKKPGASVKVSCKASGYTFSAYWIEWVRQAPGKGLEWVGEILPGSNNSRYNEKFKGRVTVTRDTSTNTAYMELSSLRSEDTAVYYCARSYDFAWFAYWGQGTLVTVSS
VL: DIQMTQSPSSLSASVGDRVTITCKSSQSLLYSSNQKIYLAWYQQKPGKAPKLLIYWASTRESGVPSRFSGSGSGTDFTFTISSLQPEDIATYYCQQYYRYPRTFGQGTKVEIKR
Q: For B1, which Ka is on record?
A: 2.7e+08 M⁻¹
